According to patent publication US20250188166A1 (BRIGHT PEAK THERAPEUTICS, published 2025):

Experiments:
[1] = biological target: T1, IL-18R on HEK-Blue IL18R reporter cells (UniProt Q13478 19-541; O95256 20-599); assay: cell-based or functional assay
T1 sequence (looked up) 1: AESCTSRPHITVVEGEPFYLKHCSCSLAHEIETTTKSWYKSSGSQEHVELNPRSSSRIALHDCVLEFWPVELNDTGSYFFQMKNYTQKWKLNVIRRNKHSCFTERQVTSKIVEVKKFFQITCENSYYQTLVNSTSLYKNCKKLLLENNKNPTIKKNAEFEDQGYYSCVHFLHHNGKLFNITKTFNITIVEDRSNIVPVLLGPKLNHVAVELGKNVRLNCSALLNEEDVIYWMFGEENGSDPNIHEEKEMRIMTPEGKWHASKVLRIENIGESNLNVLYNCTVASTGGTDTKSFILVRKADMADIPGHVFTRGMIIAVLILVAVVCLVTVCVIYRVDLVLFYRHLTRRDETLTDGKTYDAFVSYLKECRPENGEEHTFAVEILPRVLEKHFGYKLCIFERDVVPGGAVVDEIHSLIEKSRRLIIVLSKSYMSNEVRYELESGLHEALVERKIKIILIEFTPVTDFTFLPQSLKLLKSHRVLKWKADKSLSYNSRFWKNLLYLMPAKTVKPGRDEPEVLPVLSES
T1 sequence (looked up) 2: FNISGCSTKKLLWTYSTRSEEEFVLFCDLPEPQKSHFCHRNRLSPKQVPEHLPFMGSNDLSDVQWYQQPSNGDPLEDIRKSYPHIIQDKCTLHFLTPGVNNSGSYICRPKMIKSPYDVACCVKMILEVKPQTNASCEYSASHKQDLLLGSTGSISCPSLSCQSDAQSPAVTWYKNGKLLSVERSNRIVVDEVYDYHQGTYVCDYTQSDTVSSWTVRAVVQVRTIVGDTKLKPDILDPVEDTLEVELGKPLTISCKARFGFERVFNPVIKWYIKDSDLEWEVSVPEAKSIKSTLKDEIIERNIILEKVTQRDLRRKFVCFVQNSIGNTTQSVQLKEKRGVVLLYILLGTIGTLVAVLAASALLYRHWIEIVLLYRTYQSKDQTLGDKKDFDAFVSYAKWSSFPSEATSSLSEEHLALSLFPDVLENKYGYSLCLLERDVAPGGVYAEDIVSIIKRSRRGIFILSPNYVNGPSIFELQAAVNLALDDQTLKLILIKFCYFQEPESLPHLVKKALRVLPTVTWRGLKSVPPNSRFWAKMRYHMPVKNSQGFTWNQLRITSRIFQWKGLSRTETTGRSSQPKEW

[2] = biological target: T2, Biotinylated Recombinant Human PD-1/CD279-Fc Chimera (human, UniProt Q15116 25-167, biotinylated); assay: ELISA: fusion immunocytokine coated on the plate (5 µg/ml), biotinylated human PD-1-Fc titrated (x-axis, Concentration (nM)), streptavidin-HRP/TMB, 450 nm
T2 construct: Bought (Biolegend #789406); also called recombinant biotinylated human PD-1
Description: (§1) The interaction of the unmodified antibodies and corresponding IL-18 immunocytokines with relevant immune cell associated antigen are measured by ELISA assay. For these studies, Corning high-binding half-area plates (Fisher Scientific, Reinach, Switzerland) are coated overnight at 4° C. with 25 μl of unmodified antibodies corresponding IL-18 immunocytokines at 5 μg/ml in PBS. Plates are then washed four times with 100 μl of PBS-0.02% Tween20. Plate surfaces are blocked with 25 μl of PBS-0.02% Tween20-1% BSA at 37° C. during 1h. […] Plates are then washed four times with 100 μl of PBS-0.02% Tween20. Twenty-five microliters of Streptavidin-Horseradish peroxidase (#RABHRP3, Merck, Buchs, Switzerland) diluted at 1:500 into PBS-0.02%Tween20-0.1% BSA are added to each well and incubated at Room Temperature during 30 min. Plates are then washed four times with 100 μl of PBS-0.02% Tween20. Fifty microliters of TMB substrate reagent (#CL07, Merck, Buchs, Switzerland) are added to each well and incubated at 37° C. during 5 min. After 5 min at 37° C., Horseradish peroxidase reaction is stopped by adding 50 μl/well of 0.5M H2SO₄ stop solution. ELISA signal is then measured at 450 nm on an ENSPIRE® plate reader from Perkin Elmer (Schwerzenbach, Switzerland).

[3] = biological target: T2, Biotinylated Recombinant Human …; assay: ELISA; antibody coated, biotinylated human PD-1-Fc titrated
Description: as §1

[4] = biological target: T3, recombinant biotinylated human FcRn (human, UniProt P55899 24-297; P61769 21-119, limits assumed, biotinylated); assay: AlphaLISA competition at pH 6; competitor human IgG acceptor beads
T3 construct: Kit reagent; also called human neonatal Fc receptor
Description: The interaction of the unmodified and of conjugated anti-PD1 antibodies with the human neonatal Fc receptor (FcRn) at pH 6 was measured using the AlphaLISA® Human FcRn Binding Kit (AL3095C) from Perkin Elmer (Schwerzenbach, Switzerland).
After 90 min at 23° C. in the dark, AlphaLISA® signal was measured on an EnSpire plate reader (Excitation at 680 nm, Emission at 615 nm) from Perkin Elmer (Schwerzenbach, Switzerland).

[5] = biological target: T3, recombinant biotinylated human FcRn; assay: AlphaLISA competition at pH 6: test molecule titrated against human IgG acceptor beads for biotinylated human FcRn on streptavidin donor beads; normalized signal

B1: CMP2001 (other)
heavy 1: QVQLVQSGAEVKKPGASVKVSCKASGYTFTSYYMYWVRQAPGQGLEWMGGVNPSNGGTNFNEKFKSRVTITADKSTSTAYMELSSLRSEDTAVYYCARRDYRYDMGFDYWGQGTTVTVSSASTKGPSVFPLAPCSRSTSESTAALGCLVKDYFPEPVTVSWNSGALTSGVHTFPAVLQSSGLYSLSSVVTVPSSSLGTKTYTCNVDHKPSNTKVDKRVESKYGPPCPPCPAPEFLGGPSVFLFPPKPKDTLMISRTPEVTCVVVDVSQEDPEVQFNWYVDGVEVHNAKTKPREEQFNSTYRVVSVLTVLHQDWLNGKEYKCKVSNKGLPSSIEKTISKAKGQPREPQVYTLPPSQEEMTKNQVSLWCLVKGFYPSDIAVEWESNGQPENNYKTTPPVLDSDGSFFLYSRLTVDKSRWQEGNVFSCSVMHEALHNRFTQKSLSLSLGK
heavy 2: QVQLVQSGAEVKKPGASVKVSCKASGYTFTSYYMYWVRQAPGQGLEWMGGVNPSNGGTNFNEKFKSRVTITADKSTSTAYMELSSLRSEDTAVYYCARRDYRYDMGFDYWGQGTTVTVSSASTKGPSVFPLAPCSRSTSESTAALGCLVKDYFPEPVTVSWNSGALTSGVHTFPAVLQSSGLYSLSSVVTVPSSSLGTKTYTCNVDHKPSNTKVDKRVESKYGPPCPPCPAPEFLGGPSVFLFPPKPKDTLMISRTPEVTCVVVDVSQEDPEVQFNWYVDGVEVHNAKTKPREEQFNSTYRVVSVLTVLHQDWLNGKEYKCKVSNKGLPSSIEKTISKAKGQPREPQVYTLPPSQEEMTKNQVSLSCAVKGFYPSDIAVEWESNGQPENNYKTTPPVLDSDGSFFLVSRLTVDKSRWQEGNVFSCSVMHEALHNHYTQKSLSLSLGKGGGGSGGGGSGGGGSYFGKLKSKLSIIRNLNDQVLFIDQGNRPLFEDMTDSDARDNAPRTIFIISMYADSQPRGMAVAISVKCEKISTLSAENKIISFKEMNPPDNIKDTKSDIIFFQRSVPGHDNKMQFESSSYEGYFLAAEKERDLFKLILKKEDELGDRSIMFTVQNED
light: EIVLTQSPATLSLSPGERATISCRASKGVSTSGYSYLHWYQQKPGQAPRLLIYLASYLESGVPARFSGSGSGTDFTLTISSLEPEDFATYYCQHSRELPLTFGTGTKVEIKRTVAAPSVFIFPPSDEQLKSGTASVVCLLNNFYPREAKVQWKVDNALQSGNSQESVTEQDSKDSTYSLSSTLTLSKADYEKHKVYACEVTHQGLSSPVTKSFNRGEC
notes: expressed in CHO K1 cells
In the case of B1, the “IL-18R Hek Blue assay EC50” value [1] is reported as greater than 0.2 nM, the “EC50 (read off the curve)” value [2] is reported as roughly 0.03 nM and the Kd [3] is reported as 0.0389 nM. For the same binder, the Kd [4] was 12.5 nM and the “IC50 (read off the curve)” value [5] was roughly 10 nM.
